Source: paper PMC10903983 (2024)

Target: KPNA2 (Homo sapiens, UniProt P52292)
Test: MST

Binder	Kd [µM]
KLVFF [FF-T nucleopeptide]	~31.1
KLVFFVKRKKKP [NLS-FF-T nucleopeptide]	~1.16
